# The DeepSol protein solubility set
# Experiment: soluble on expression in E. coli; label from the status in PepcDB or PDB records
row,Sequence,soluble on expression in E. coli
1,MAHHHHHHMPQVDLVKLLQICVNGALAAQQYILLDLIQLRSLEVSRRDVCIADLDQQEIARLRARLKAAVSVDVKGKLEYKEGGSVDDLVTTADVVTQGLMERLLAEAFPDTPFTIIGEEEATTTDAIKIQVERCVEAFRDVNAVAPLQKELEAHASSDSRHVSASTVEELRARVGVFIDPIDATSCFVDGTWGAPMTLVGITVDGVPVAGVSNRFFYSTVDDLTSGGNAGCTGLSYVWNDPSAGPFIVHEGRLATPLWSLGRKTTSNLAMLRVIRSGTTSNKRFEQLLARLQPVEPRSARGAGNKLMLLVVSMLAASDGAAAAACDVFLAPPNSISKWDTCAAHAFLLALGGDMRTLRGELIRYPLRGTTNLKTLPDGVVGLTRWSMTEGLRRLGWQ,not soluble
2,GPGSMLRLSASRRSAQNILHDIQAAVESRSIMATSSFAQRRSFLVALSEELHRNSEHIIHANRRDCDLFGRQQQQRGTPSVTIPPTLPSTSAATSLQPSSSLHGGPAGYPPFLGRPGHRVGDAQGISVAAENPATATPAPNAAEGSGASSPRRQSSLDYVAGASPVGSPDPNGAGGAAAGGRAAASPAGAGPALGETAAGSRATSTSGTAAPVSPSRWAARASSASLQLVPTAVSGHATRTEAGGGGGHLLITPDNHFLISPLRLDKLHTTIEYLLCQPDPIAIPPSCWLHDSAEGDSGAAANSLREQGSLGAAPGHNSPPPPSAAGSHAGCGRCTRRTDRLEVYELSVPLGMVGILSRFRPRISIDTVAMGLFAGNTVLLDGGVSLYNTNMALMSSVRRALTTAGLSPSAVVCVESYDAAHRSTSEWLQLSDCVDLAVVCGPPKLYQFASRYSTIPLMRATGQFSSVYVDQSASFEVALEVILNSKFQKLGAANAVTTVIVHSDFPRYTELVLALAAEGAVLLGDVTAQERVPDCVLELASEEEYQGLSQYGLRDAARTLCLKTVDSLAQALFFIESFGSKQSDCIVATDLEVCATYCRHVDTAVALVNASTRLSSGVPLGCGVDFAISTSKTHCRGPLTVEMMTTRKLVARSLSAHHGALR,not soluble
3,DDIKVAVVGAMSGPIAQWGDMEFNGARQAIKDINAKGGIKGDKLVGVEYDDACDPKQAVAVANKIVNDGIKYVIGHLCSSSTQPASDIYEDEGILMISPGATNPELTQRGYQHIMRTAGLDSSQGPTAAKYILETVKPQRIAIIHDKQQYGEGLARSVQDGLKAANANVVFFDGITAGEKDFSALIARLKKENIDFVYYGGYYPEMGQMLRQARSVGLKTQFMGPEGVGNASLSNIAGDAAEGMLVTMPKRYDQDPANQGIVDALKADKKDPSGPYVWITYAAVQSLATALERTGSDEPLALVKDLKANGANTVIGPLNWDEKGDLKGFDFGVFQWHADGSSTKAK,soluble
4,MAQNLIFITIALVAIVNAGPGEEREKGPGEHKRGGKHHGFPSFFGNVSAEGRKEIAVVFKNENLTLAQADTQIASLAEKYGFAAAYKEHKEKEAVRQAETKKNTTTVINNLSSVATKLSAIRENKDQTRKAQHEAIEALRNENGVEVDTIEFIAKRSRGFGGRHGGRKGGKGGKHFGKKNGDKKRGPHGGDEEGKKTKEAAQ,not soluble
5,MPLYKLTYFDARGYAEPARILFHLAGVPFEDNRLTHGDGSWEKIKDKTPFGQVPVLSVDGFDIPQSAAIIRYLANKFGYAGKTPEEQAWADAIVDQFKDFMGAFRQLIMAQRSGKPAEEIAKISSEVAIPARDSYFKILNGLLEKSKSGFLVGDGLTFADIVVVENLTTLEKNQFFTASEHPKLSALREKVHAVPAIKTWVATRPDTQF,not soluble
6,MGSDKIHHHHHHMGSYPDGKRIFVKMNTSPILPGLAREQIAPQLLWSRRLADGRDMCAQEWLTGKILTPYDMNRKQIVNILTRLHRSRPLMTQLSRLGYAMETPVDLLQSWQETAPDALRKNHFISEVMADLRQTIPGFREDHATIVHGDVRHSNWIETDSGLIYLVDWDSVRLTDRMFDVAHMLCHYISEHQWKEWLTYYGYKYNQTVLSKLYWYGQLSYLSQISKYYMNQDLENVNREIHGLRHFRDKYGKRR,not soluble
7,MSLAMNNILGLFAHSPLKPLQKHSEKVTECSDLLIPFFQTTFSKNWEQAEEKRLEISQCEREADSLKREIRLKLPRGLFLPIDRTDLLELVTQQDKLANYAKDIAGRMIGRQFGIPEEMQEEFLHYVKRSLDAIHQAHRVIEEMDKLLETGFKGRELKLVNDMIQELDSIEDDTDQMQIKLRKMLYTIESRYNPIDVMFLYKIIEWVGVLADQAQRVGSRIELMLARSEGHHHHHH,soluble
8,MTRCPERPGFMPRLSSHHFSRSRLSAPLLASGARVKLLCAPAGSGKTALLAECLQQAPETCRVSWLPLSGGRHSPQGLCAALAQALGLERDDEATVLQHLAHLQAPAWIFIDDYCRVAAADLDLLLDRLLSLDNPQLTWWLGCRRRPLCNWPRLLLDDQLFELDGPALAFSQIEIEQLLQRLPQPLCAQTASRILQRSGGWCAGVRIALLEGSELTIQPCKPGRPNTLLEYLEHELFSVLPAELAQVWQVLAHLPRFNAELCEHLFGVGEGAQYLRTLQDMACFIEPWDGGGDWLQVFPPLARLMRDE,not soluble
9,GSHMQTHAARMRTFMYWPSSVPVQPEQLASAGFYYVGRNDDVKCFCCDGGLRCWESGDDPWVEHAKWFPRCEFLIRMKGQEFVDEIQGRYPHLLEQLLSTS,soluble
10,RGIAVYVEHHNGNIHPVTYELIGKAREMASKIKQPVYCVFVGKDIKDKCSNLISYGVDEVFVYDEDEFKDFRIEPYSKAIENFIDKIKPTIVLVGGTTLGRSLAPRLAARFRTGLTADCTILDIQSNTDLDQIRPAFGGNIMAHINTPNNRPQFATVRYKIFSAPEKIENTTGKITLCKVEKKELKSKIKVLS,not soluble
11,MGSDKIHHHHHHMKNLFLYCRAGYEKDCAAEIQQRAAELGIGGFVKANRDDAYVVFQGFSPDDGDRLAKELPLDSLIFARQMFACGDLLDDFSPEDRVTPIAESLTEVERAGELRVETPDTNEAKELSAFCRKFTVPLRQALKKRGVLLDKESSRRPIVHVCFVAPNKAFTGYSLSNNSSPHFMGIPRLKFPADAPSRSTLKLDEAFIHFIPREEHETRLRSGLNAVDLGACPGGWTYQLVRRGMMVHAIDNGPMNHDLMETGQVTHHRADGFKFEPARRNIYWLVCDMVEKPARVAELMEYWAIQGWFKEAIFNLKLPMKSRYKEVSQILANMHAILKENGIHEFHLACKHLYHDRDEVTVHLWLRPSSPWI,not soluble
12,MTLNIQGIAASSGIAIAKAFRLENPEFNIEQKSITNEAAEIARLEAALEKAKTELEAIKDHAFAELGADKAAIFEAHLLVLNDPELVNPVKDKVNSEKVNAEFAMDEVASMFISMFENMDNEYMKERAADIRDVTKRVLAHLLGINFSNPGTNSEEVIIIAEDLTPSDTAQLNRKYAKGFTTDIGGRTSHSAIMARSMEIPAVVGTKVVMEKIQNGDIVIIDGLDGEVIVNPSEETLRSFEEKKAKFEEQKAEWAKLKDQATVTSDGHHVELVANIGTLNDVQGIIDNGGEGVGLYRTEFLYMGRDNLPTEEEQFEAYKAVLEGVKEGQPVVVRTLDIGGDKELPYLHLPKEMNPFLGYRAIRLCLDEQDVFRTQLRALLRASVYGNLKIMFPMIATLDEFRQAKAILLEEKAKLVEVGTTVSDSIEVGMMVEIPASAVLADQFAKEVDFFSIGTNDLIQYTMAADRMNEQVSYLYQPYNLSILRLVKMVIDAAHKEGKWAGMCGEMAGDSLAIPLLLGLGLDEFSMSATSILPARTQLSKLSKAEMETLAEKALMMSTAEEVVELVKSI,not soluble
13,MGSDKIHHHHHHMDFKELFPEVITKQEVKQSEDYIIVEQDGHVLHFPKSSLTKRELYLLQMTPSLEDASSVDSQNPWYRYLVEGRGRLPQSHSAVQFIFIEHQFTLSEELKDFLSPLVINVETIMTINQTQSVMILNQDNFFNATELLTDILPTIENDFNTRLRCYFGNSWTHLQAVDWKELYEEEYKLFTLFLSHKAEQHYCRFPKMALWALANQSPMPSIKAKCLQHILDTSDTSAIIKALWQEQGNLAKTAKALFIHRNSLQYKLDKFTQSSGLNLKILDDLAYAYLISMDT,not soluble
14,MGSDKIHHHHHHMQELCSSVVLRKHSWIQYNAMSDTVIKVEKLSKEYRLGTINHGFLFRDLQSWWARRRGKEDPNSLITTYQQHLVSDDNSRLSGGRFLALDDLTFEVRQGDALGIIGRNGAGKSTLLKIISKVTSPTSGVVKIRGRVASLLEVGTGFHPELTGRENIYLNGAISGMNKKEIKNKFDEIVAFSGVEKFIDSPVKRYSSGMYVRLAFAVAAHLGPEILIVDEVLAVGDIQFQKQCLGKMDDISKGGRTVVFVSHSLQTIASLCRECILLDQGKIKKRGLPSEVILEYLGEGGSSCADFTKLGRTVGDNFVQLVMGIVQDANNEVITEIDIREPLKISMHFTVKQDTSIRYIPNFHFTVPGGTYAFVSSPSSISELSSGNYIATCNIPGNFLNEGTYYVGLAITSYEPGMTIHFFEPNVLTFSIRDPMENCVGRYGFGYANVMPGIVRPNLDWDVRKSG,not soluble
15,MSLDINQIALHQLIKRDEQNLELVLRDSLLEPTETVVEMVAELHRVYSAKNKAYGLFSEESELAQTLRLQRQGEEDFLAFSRAATGRLRDELAKYPFADGGFVLFCHYRYLAVEYLLVAVLSNLSSMRVNENLDINPTHYLDINHADIVARIDLTEWETNPESTRYLTFLKGRVGRKVADFFMDFLGASEGLNAKAQNRGLLQAVDDFTAEAQLDKAERQNVRQQVYSYCNEQLQAGEEIELKSLSKELAGVSEVSFTEFAAEKGYELEESFPADRSTLRQLTKFAGSGGGLTINFDAMLLGERIFWDPATDTLTIKGTPPNLRDQLQRRTSGGNLEHHHHHH,not soluble
16,MGSDKIHHHHHHMSLRPYREIARRKSRQIHVGSVAVGGDAPISVQTMTNTLTTDVKGTLEQIRRAADAGADLVRVSCPDEDSTKAFKQIAKESPVPLIADIHFHYKRGIEAAEAGAACLRINPGNIGSHERVREVVKAAKDHGCSMRIGVNAGSLDKHLLDKYGEPCPEALVESALEHAKLLEDNDFFEFKIAVKASDVFLAVAAYQGLAKACDYPLHLGITEAGGLIGGTVKSSIGIGSLLWQGIGDTLRVSLSADVTEEVKVGFEMLKALDLRHRGVRIVSCPSCARQGFDVIKTVETLENRLSHVRAPVTLSILGCVVNGPGEARETMVGITGGGSDNHKVYIGGSPDHNVDGKSMVDHIVELVEARAAEIEAAKAGGK,not soluble
17,MSAEAVAAAPIAEEATPVVYYSIESNDRVVLKISEQAIKQSATLSNSITNLGYSAENAESMVPIPIEKVNGKTLKLVVEWCEHHKADPVPEAYPSGNTVLPVWDRKFVDIEHDALTDLVNASNFLEVMTLLTYCCKFIAGLAKGMSPEEMRVFFCIPTDEEDEKAERFGKEKTEASATSADTTA,not soluble
18,MSAAVQKRASTNTVAATTYFKPAPSEIAWGKMRFLITDRPNNSSIQSYIEELEKHGARAVVRVCEPTYDTLALKEAGIDVLDWQFSDGSPPPPEVIKSWFQLCMTSFKEHPDKSIAVHCVAGLGRAPVLVAIALIEAGMKYEDAVEMIRTQRRGALNQKQLKFLETYKANGELRRLRGNVDGKQKSCCIQ,not soluble
19,MSLIEIESRELADIPVLHAYPVGQKDTPLPCVIFYHGFTSSSLVYSYFAVALAQAGLRVIMPDAPDHGSRFSGDAARRLNQFWQILLQSMQEFTTLRAAIAEENWLLDDRLAVGGASMGAMTALGITARHPTVRCTASMMGSGYFTSLARSLFPPLIPETAAQQNEFNNIVAPLAEWEATNHLEQLSDRPLLLWHGLDDDVVPADESLRLQQALSETGRDKLLTCSWQPGVRHRITPEALDAAVTFFRQHLEGGSHHHHHH,soluble
